B1: human ACKR4-EYFP [human] / fluorescently labeled human CCL19^Dy649P1 [modified: Dy649P1 (as CoA conjugate) attached site-specifically to the S6-tag by the phosphopantetheinyl transferase Sfp; Dy649P1 (as CoA conjugate) … (parent)
chain 1: GTNDAEDCCLSVTQKPIPGYIVRNFHYLLIKDGCRVPAVVFTTLRGRQLCAPPDQPWVERIIQRLQRTSAKMKRRSS
chain 2: MALEQNQSTDYYYEENEMNGTYDYSQYELICIKEDVREFAKVFLPVFLTIVFVIGLAGNSMVVAIYAYYKKQRTKTDVYILNLAVADLLLLFTLPFWAVNAVHGWVLGKIMCKITSALYTLNFVSGMQFLACISIDRYVAVTKVPSQSGVGKPCWIICFCVWMAAILLSIPQLVFYTVNDNARCIPIFPRYLGTSMKALIQMLEICIGFVVPFLIMGVCYFITARTLMKMPNIKISRPLKVLLTVVIVFIVTQLPYNIVKFCRAIDIIYSLITSCNMSKRMDIAIQVTESIALFHSCLNPILYVFMGASFKNYVMKVAKKYGSWRRQRQSVEEFPFDSEGPTEPTSTFSI

Variants of: B1
Assay: flow cytometry on cells
Conditions: with fluorescently labeled human CCL19^Dy649P1 [modified: Dy649P1 (as CoA conjugate) attached site-specifically to the S6-tag by the phosphopantetheinyl transferase; 25 nM CCL19Dy649P1 at 8°C; HeLa cells; read off a plot

percent of parent | Variant
83 % of wt | chain 2 MALEQNQSTDYYYEENEMNGTYDYSQYELICIKEDVREFAKVFLPVFLTIVFVIGLAGNSMVVAIYAYYKKQRTKTDVYILNLAVADLLLLFTLPFWAVNAVHGWVLGKIMCKITSALYTLNFVSGMQFLACISIDRYVAVTKVPSQSGVGKPCWIICFCVWMAAILLSIPQLVFYTVNDNARCIPIFPRYLGTSMKALIQMLEICIGFVVPFLIMGVCYFITARTLMKMPNIKISRPLKVLLTVVIVFIVTQLPYNIVKFCRAIDIIYSLITSCNMSKRMDIAIQVTESIALFHSCLNPILYVFMGASFKNYVMKVAKKYGSWRRQRQAVEEFPFDSEGPTEPTSTFSI [chain 2 S330A]
85 % of wt | chain 2 MALEQNQSTDYYYEENEMNGTYDYSQYELICIKEDVREFAKVFLPVFLTIVFVIGLAGNSMVVAIYAYYKKQRTKTDVYILNLAVADLLLLFTLPFWAVNAVHGWVLGKIMCKITSALYTLNFVSGMQFLACISIDRYVAVTKVPAQSGVGKPCWIICFCVWMAAILLSIPQLVFYTVNDNARCIPIFPRYLGTSMKALIQMLEICIGFVVPFLIMGVCYFITARTLMKMPNIKISRPLKVLLTVVIVFIVTQLPYNIVKFCRAIDIIYSLITSCNMSKRMDIAIQVTESIALFHSCLNPILYVFMGASFKNYVMKVAKKYGSWRRQRQSVEEFPFDSEGPTEPTSTFSI [chain 2 S146A]
87 % of wt | chain 2 MALEQNQSTDYYYEENEMNGTYDYSQYELICIKEDVREFAKVFLPVFLTIVFVIGLAGNSMVVAIYAYYKKQRTKTDVYILNLAVADLLLLFTLPFWAVNAVHGWVLGKIMCKITSALYTLNFVSGMQFLACISIDRYVAVTKVPSQSGVGKPCWIICFCVWMAAILLSIPQLVFYTVNDNARCIPIFPRYLGTSMKALIQMLEICIGFVVPFLIMGVCYFITARTLMKMPNIKISRPLKVLLTVVIVFIVTQLPYNIVKFCRAIDIIYSLITSCNMSKRMDIAIQVTESIALFHSCLNPILYVFMGASFKNYVMKVAKKYGAWRRQRQSVEEFPFDSEGPTEPTSTFSI [chain 2 S323A]
90 % of wt | chain 2 MALEQNQSTDYYYEENEMNGTYDYSQYELICIKEDVREFAKVFLPVFLTIVFVIGLAGNSMVVAIYAYYKKQRTKTDVYILNLAVADLLLLFTLPFWAVNAVHGWVLGKIMCKITSALYTLNFVSGMQFLACISIDRYVAVAKVPSQSGVGKPCWIICFCVWMAAILLSIPQLVFYTVNDNARCIPIFPRYLGTSMKALIQMLEICIGFVVPFLIMGVCYFITARALMKMPNIKISRPLKVLLTVVIVFIVTQLPYNIVKFCRAIDIIYSLITSCNMSKRMDIAIQVTESIALFHSCLNPILYVFMGASFKNYVMKVAKKYGSWRRQRQSVEEFPFDSEGPTEPTSTFSI [chain 2 T142A T226A]
93 % of wt | chain 2 MALEQNQSTDYYYEENEMNGTYDYSQYELICIKEDVREFAKVFLPVFLTIVFVIGLAGNSMVVAIYAFYKKQRTKTDVYILNLAVADLLLLFTLPFWAVNAVHGWVLGKIMCKITSALYTLNFVSGMQFLACISIDRYVAVTKVPSQSGVGKPCWIICFCVWMAAILLSIPQLVFYTVNDNARCIPIFPRYLGTSMKALIQMLEICIGFVVPFLIMGVCYFITARTLMKMPNIKISRPLKVLLTVVIVFIVTQLPYNIVKFCRAIDIIYSLITSCNMSKRMDIAIQVTESIALFHSCLNPILYVFMGASFKNYVMKVAKKYGSWRRQRQSVEEFPFDSEGPTEPTSTFSI [chain 2 Y68F]
90 % of wt | chain 2 MALEQNQSTDYYYEENEMNGTYDYSQYELICIKEDVREFAKVFLPVFLTIVFVIGLAGNSMVVAIYAYYKKQRTKTDVYILNLAVADLLLLFTLPFWAVNAVHGWVLGKIMCKITSALYTLNFVSGMQFLACISIDRYVAVTKVPSQSGVGKPCWIICFCVWMAAILLSIPQLVFYTVNDNARCIPIFPRYLGTSMKALIQMLEICIGFVVPFLIMGVCYFITARTLMKMPNIKIARPLKVLLTVVIVFIVTQLPYNIVKFCRAIDIIYSLITSCNMSKRMDIAIQVTESIALFHSCLNPILYVFMGASFKNYVMKVAKKYGSWRRQRQSVEEFPFDSEGPTEPTSTFSI [chain 2 S236A]
90 % of wt | chain 2 MALEQNQSTDYYYEENEMNGTYDYSQYELICIKEDVREFAKVFLPVFLTIVFVIGLAGNSMVVAIYAYYKKQRTKTDVYILNLAVADLLLLFTLPFWAVNAVHGWVLGKIMCKITSALYTLNFVSGMQFLACISIDRYVAVAKVPSQSGVGKPCWIICFCVWMAAILLSIPQLVFYTVNDNARCIPIFPRYLGTSMKALIQMLEICIGFVVPFLIMGVCYFITARTLMKMPNIKISRPLKVLLTVVIVFIVTQLPYNIVKFCRAIDIIYSLITSCNMSKRMDIAIQVTESIALFHSCLNPILYVFMGASFKNYVMKVAKKYGSWRRQRQSVEEFPFDSEGPTEPTSTFSI [chain 2 T142A]
85 % of wt | chain 2 MALEQNQSTDYYYEENEMNGTYDYSQYELICIKEDVREFAKVFLPVFLTIVFVIGLAGNSMVVAIYAYYKKQRTKTDVYILNLAVADLLLLFTLPFWAVNAVHGWVLGKIMCKITSALYTLNFVSGMQFLACISIDRYVAVTKVPSQAGVGKPCWIICFCVWMAAILLSIPQLVFYTVNDNARCIPIFPRYLGTSMKALIQMLEICIGFVVPFLIMGVCYFITARTLMKMPNIKISRPLKVLLTVVIVFIVTQLPYNIVKFCRAIDIIYSLITSCNMSKRMDIAIQVTESIALFHSCLNPILYVFMGASFKNYVMKVAKKYGSWRRQRQSVEEFPFDSEGPTEPTSTFSI [chain 2 S148A]
110 % of wt | chain 2 MALEQNQSTDYYYEENEMNGTYDYSQYELICIKEDVREFAKVFLPVFLTIVFVIGLAGNSMVVAIYAYYKKQRTKTDVYILNLAVADLLLLFTLPFWAVNAVHGWVLGKIMCKITSALYTLNFVSGMQFLACISIDRYVAVTKVPSQSGVGKPCWIICFCVWMAAILLSIPQLVFYTVNDNARCIPIFPRYLGTSMKALIQMLEICIGFVVPFLIMGVCYFITARTLMKMPNIKISRPLKVLLTVVIVFIVTQLPYNIVKFCRAIDIIYSLITSCNMSKRMDIAIQVTESIALFHSCLNPILYVFMGAAFKNYVMKVAKKYGSWRRQRQSVEEFPFDSEGPTEPTSTFSI [chain 2 S309A]
83 % of wt | chain 2 MALEQNQSTDYYYEENEMNGTYDYSQYELICIKEDVREFAKVFLPVFLTIVFVIGLAGNSMVVAIYAYYKKQRTKTDVYILNLAVADLLLLFTLPFWAVNAVHGWVLGKIMCKITSALYTLNFVSGMQFLACISIDRYVAVTKVPSQSGVGKPCWIICFCVWMAAILLSIPQLVFYTVNDNARCIPIFPRYLGTSMKALIQMLEICIGFVVPFLIMGVCYFITARALMKMPNIKISRPLKVLLTVVIVFIVTQLPYNIVKFCRAIDIIYSLITSCNMSKRMDIAIQVTESIALFHSCLNPILYVFMGASFKNYVMKVAKKYGSWRRQRQSVEEFPFDSEGPTEPTSTFSI [chain 2 T226A]
120 % of wt | chain 2 MALEQNQSTDYYYEENEMNGTYDYSQYELICIKEDVREFAKVFLPVFLTIVFVIGLAGNSMVVAIYAYYKKQRTKTDVYILNLAVADLLLLFTLPFWAVNAVHGWVLGKIMCKITSALYTLNFVSGMQFLACISIDRYVAVTKVPSQSGVGKPCWIICFCVWMAAILLSIPQLVFYTVNDNARCIPIFPRYLGTSMKALIQMLEICIGFVVPFLIMGVCYFITARTLMKMPNIKISRPLKVLLTVVIVFIVTQLPYNIVKFCRAIDIIYSLITSCNMSKRMDIAIQVTESIALFHSCLNPILYVFMGAAFKNYVMKVAKKYGAWRRQRQAVEEFPFDSEGPTEPTSTFSI [chain 2 S309A S323A S330A]
110 % of wt | chain 2 MALEQNQSTDYYYEENEMNGTYDYSQYELICIKEDVREFAKVFLPVFLTIVFVIGLAGNSMVVAIYAYYKKQRTKTDVYILNLAVADLLLLFTLPFWAVNAVHGWVLGKIMCKITSALYTLNFVSGMQFLACISIDRYVAVAKVPSQSGVGKPCWIICFCVWMAAILLSIPQLVFYTVNDNARCIPIFPRYLGTSMKALIQMLEICIGFVVPFLIMGVCYFITARALMKMPNIKISRPLKVLLTVVIVFIVTQLPYNIVKFCRAIDIIYSLITSCNMSKRMDIAIQVTESIALFHSCLNPILYVFMGAAFKNYVMKVAKKYGAWRRQRQAVEEFPFDSEGPTEPTSTFSI [chain 2 T142A T226A S309A S323A S330A]
110 % of wt | chain 2 MALEQNQSTDYYYEENEMNGTYDYSQYELICIKEDVREFAKVFLPVFLTIVFVIGLAGNSMVVAIYAYYKKQRTKTDVFILNLAVADLLLLFTLPFWAVNAVHGWVLGKIMCKITSALYTLNFVSGMQFLACISIDRYVAVTKVPSQSGVGKPCWIICFCVWMAAILLSIPQLVFYTVNDNARCIPIFPRYLGTSMKALIQMLEICIGFVVPFLIMGVCYFITARTLMKMPNIKISRPLKVLLTVVIVFIVTQLPYNIVKFCRAIDIIYSLITSCNMSKRMDIAIQVTESIALFHSCLNPILYVFMGASFKNYVMKVAKKYGSWRRQRQSVEEFPFDSEGPTEPTSTFSI [chain 2 Y79F]
72 % of wt | chain 2 MALEQNQSTDYYYEENEMNGTYDYSQYELICIKEDVREFAKVFLPVFLTIVFVIGLAGNSMVVAIYAYYKKQRTKTDVYILNLAVADLLLLFTLPFWAVNAVHGWVLGKIMCKITSALYTLNFVSGMQFLACISIDRFVAVTKVPSQSGVGKPCWIICFCVWMAAILLSIPQLVFYTVNDNARCIPIFPRYLGTSMKALIQMLEICIGFVVPFLIMGVCYFITARTLMKMPNIKISRPLKVLLTVVIVFIVTQLPYNIVKFCRAIDIIYSLITSCNMSKRMDIAIQVTESIALFHSCLNPILYVFMGASFKNYVMKVAKKYGSWRRQRQSVEEFPFDSEGPTEPTSTFSI [chain 2 Y138F]
